This is an account of results in publication PMC11066036, “HPK1 citron homology domain regulates phosphorylation of SLP76 and modulates kinase domain interaction dynamics” (Nature Communications, 2024).

T1: HPK1 intact citron homology domain fragment with C-terminal Flag (Flag-CHD) (UniProt Q92918-2 428-821)
T1 construct: HPK1 (MAP4K1), intact CHD fragment from thrombin digestion of the full-length protein; the cut is told as after R427 (C428-E821) for the untagged construct; the protein is printed as M1-E821 (821 residues); the Flag form was made by the same digestion; also called intact CHD with C-flag; recombinant Flag-CHD; source: sf9, purified; thrombin digest of full-length HPK1 with C-terminal Flag (Ni, …)
T1 sequence (looked up): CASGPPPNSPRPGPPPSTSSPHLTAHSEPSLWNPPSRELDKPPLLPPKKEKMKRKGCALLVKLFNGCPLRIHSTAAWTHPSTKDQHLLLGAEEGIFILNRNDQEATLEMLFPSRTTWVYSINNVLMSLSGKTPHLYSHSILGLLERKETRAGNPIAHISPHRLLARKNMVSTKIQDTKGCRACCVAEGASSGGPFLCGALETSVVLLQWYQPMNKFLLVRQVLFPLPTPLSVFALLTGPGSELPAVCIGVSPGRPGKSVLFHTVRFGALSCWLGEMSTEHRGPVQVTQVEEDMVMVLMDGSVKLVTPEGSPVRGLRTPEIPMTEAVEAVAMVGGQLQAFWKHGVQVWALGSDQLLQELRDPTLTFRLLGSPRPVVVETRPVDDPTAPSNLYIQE

T2: HPK1 ΔCHD with LgBit tag (UniProt Q92918 1-483)
T2 construct: HPK1 (MAP4K1) without the CHD, M1-G483; limits as printed for the pMSCV construct of the same name; also called KD + 4PRs; source: HPK1-/- Jurkat cells, transiently transfected, in live cells
T2 sequence (looked up): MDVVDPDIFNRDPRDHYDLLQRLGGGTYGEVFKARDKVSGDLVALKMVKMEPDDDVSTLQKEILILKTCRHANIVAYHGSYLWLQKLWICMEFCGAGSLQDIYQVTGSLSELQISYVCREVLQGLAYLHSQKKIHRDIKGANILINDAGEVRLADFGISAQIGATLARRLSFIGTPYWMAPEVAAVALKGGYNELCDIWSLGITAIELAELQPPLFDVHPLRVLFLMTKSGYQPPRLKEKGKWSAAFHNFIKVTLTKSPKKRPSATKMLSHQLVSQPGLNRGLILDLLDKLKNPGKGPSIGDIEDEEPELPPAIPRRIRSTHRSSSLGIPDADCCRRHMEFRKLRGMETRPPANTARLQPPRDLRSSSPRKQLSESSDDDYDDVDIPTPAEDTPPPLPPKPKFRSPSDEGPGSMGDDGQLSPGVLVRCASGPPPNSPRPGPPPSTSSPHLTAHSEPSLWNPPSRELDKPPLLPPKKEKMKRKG

B1: HPK1 kinase domain S171A (KD SA) (domain or fragment, UniProt Q92918 2-293, looked up)
chain: DVVDPDIFNRDPRDHYDLLQRLGGGTYGEVFKARDKVSGDLVALKMVKMEPDDDVSTLQKEILILKTCRHANIVAYHGSYLWLQKLWICMEFCGAGSLQDIYQVTGSLSELQISYVCREVLQGLAYLHSQKKIHRDIKGANILINDAGEVRLADFGISAQIGATLARRLAFIGTPYWMAPEVAAVALKGGYNELCDIWSLGITAIELAELQPPLFDVHPLRVLFLMTKSGYQPPRLKEKGKWSAAFHNFIKVTLTKSPKKRPSATKMLSHQLVSQPGLNRGLILDLLDKLKN
notes: source: recombinant, purified
B2: HPK1 kinase domain T165E/S171E/L221K (KD TSEE L221K) (domain or fragment, UniProt Q92918 2-293, looked up)
chain: B1 chain with T164E, A170E, L220K
notes: HPK1 (MAP4K1) kinase domain, residues D2-N293, TSEE backbone with L221K; source: recombinant, purified
B3: HPK1 kinase domain T165E/S171E (KD TSEE WT) (domain or fragment, UniProt Q92918 2-293, looked up)
chain: B1 chain with T164E, A170E
notes: HPK1 (MAP4K1) kinase domain, residues D2-N293, with the phosphomimetic mutations T165E/S171E; also called WT KD; active TSEE form; source: recombinant, purified
B4: HPK1 intact citron homology domain fragment (C428-E821), untagged (domain or fragment, UniProt Q92918-2 428-821, looked up)
chain: T1 sequence (looked up)
notes: HPK1 (MAP4K1), fragment left after thrombin cut after R427: two PR domains and the intact CHD, residues C428-E821; the protein is printed as M1-E821 (821 residues); Cut out of a full-length construct (T165E, S171E, R319A, thrombin site inserted after V384); none of these changes lies in the fragment; also called WT-CHD; CHD WT; source: sf9, purified; thrombin digest of full-length HPK1 (Ni, …)
B5: SLP76 with SmBit tag (natural protein, UniProt Q13094 1-533, looked up)
chain: MALRNVPFRSEVLGWDPDSLADYFKKLNYKDCEKAVKKYHIDGARFLNLTENDIQKFPKLRVPILSKLSQEINKNEERRSIFTRKPQVPRFPEETESHEEDNGGWSSFEEDDYESPNDDQDGEDDGDYESPNEEEEAPVEDDADYEPPPSNDEEALQNSILPAKPFPNSNSMYIDRPPSGKTPQQPPVPPQRPMAALPPPPAGRNHSPLPPPQTNHEEPSRSRNHKTAKLPAPSIDRSTKPPLDRSLAPFDREPFTLGKKPPFSDKPSIPAGRSLGEHLPKIQKPPLPPTTERHERSSPLPGKKPPVPKHGWGPDRRENDEDDVHQRPLPQPALLPMSSNTFPSRSTKPSPMNPLPSSHMPGAFSESNSSFPQSASLPPYFSQGPSNRPPIRAEGRNFPLPLPNKPRPPSPAEEENSLNEEWYVSYITRPEAEAALRKINQDGTFLVRDSSKKTTTNPYVLMVLYKDKVYNIQIRYQKESQVYLLGTGLRGKEDFLSVSDIIDYFRKMPLLLIDGKNRGSRYQCTLTHAAGYP
notes: SLP76 (SH2 domain-containing leukocyte protein of 76 kD); also called SH2 domain-containing leukocyte protein of 76 kD; source: HPK1-/- Jurkat cells, transiently transfected, in live cells

Residue numbers refer to the chain shown, from its start. In names and notes the source's numbering stands.

Assay [1] deals with B4. Nature of the assay: SPR; Biacore T200; KD variants captured (56-73 RU) by a biotinylated anti-KD Fab on NeutrAvidin chip; WT-CHD injected as analyte at various concentrations; 20 mM HEPES, 300 mM NaCl, 0.1% polysorbate 20, 0.5 mM TCEP, pH 7.4; 25 °C. To be noted: both partners purified.
Assay [2] deals with T1, HPK1 intact citron homology domain …. Nature of the assay: AlphaScreen or HTRF; TR-FRET saturation binding; KD at 5 µM constant, Flag-CHD 1.53 nM-6.25 µM; anti-KD biotinylated Fab with streptavidin-Lumi4Tb and anti-Flag-d2; 20 mM HEPES, 300 mM NaCl, 0.1% polysorbate 20, 0.5 mM TCEP, pH 7.4; apparent KD, called overestimated by the paper. The settings on record: both partners purified.

Assay [3] concerns the target full-length HPK1 (M1-E821, T165E, S171E, R319A, Y381E) with N-terminal His tag and C-terminal Flag (UniProt Q92918-2 1-821, T165E | S171E | R319A | Y381E, Isoform 2 (821 aa): C-terminus taken from 8EEC (entity position = residue - 478). N-terminal His and C-terminal Flag left out. A thrombin site after V384 may be present, but its sequence and its prese). Nature of the assay: AlphaScreen or HTRF; TR-FRET competition; 5 nM full-length HPK1 with C-terminal Flag labelled with anti-KD Fab-streptavidin-Lumi4Tb and anti-Flag-d2; untagged CHD titrated (23.84-97.65 µM as printed) against the KD-CHD interaction within the full-length protein; One site - Fit Ki. The settings on record: both partners purified.

Assay [4] concerns the target T2, HPK1 ΔCHD with LgBit tag. Nature of the assay: split reporter (BiFC, NanoBiT); NanoBit in live HPK1-/- Jurkat cells transiently transfected with SmBit-tagged SLP76 and LgBit-tagged HPK1 forms; luminescence over time, with or without TCR stimulation (anti-CD3 and anti-IgG). To be noted: partners not purified.

B1: in assay [1], the binding result was “binds”. Take B2: the Kd in assay [2] was 37.9 nM. As to B3, in assay [2], the Kd is 62.8 nM. For the molecule B4, affinity in assay [3] was put at a Ki of 5990 nM. B5: the “level of interaction at baseline relative to full-length wild-type” value in assay [4] is ~0.33 fold of full-length wild-type.
